From patent publication US20230272055A1, “ANTI-MUTANT CALRETICULIN (CALR) ANTIBODIES AND USES THEREOF” (Incyte Corporation, priority 2021, published 2023)

Test system: BaF3 cells expressing MPL/mutCALR Type 1
Assay: Example 16 inhibition of cell proliferation, CellTiter-Glo 72 hours
Format: cell-based
Procedure: The ability of the five antibodies shown here to inhibit cell proliferation was tested. Inhibition of cell proliferation was assessed using engineered BaF3 cells expressing MPL/mutCALR Type 1. Cells were plated at 5,000 cells per well in RPMI 1640+2% FBS, antibodies were added and incubated for 72 hours, followed by assessment of cell viability using the CellTiter-Glo Luminescent Cell Viability Assay (Promega, Madison, Wis.) and Top Count (Perkin Elmer, Boston, Mass.) or Pherastar (BMG Labtech, Ortenberg, Germany) for luminescence quantification. […] The data shown in FIGS. 21A and 21B were compiled from different experiments.

IC50 for anti-mutCALR antibody mediated inhibition of cell proliferation (BaF3 cells expressing MPL/mutCALR Type 1, 72 hours, CellTiter-Glo): >60 µg/mL
B1: AB4: anti-mutCALR antibody including VH and VL regions of antibody 8B2-H6 from WO2016087514 fused to human constant regions (antibody)
heavy: EVQLKQSGPELVKTGASVKISCKASGYSFTGYYIHWVKQSHGKSLEWIGYISCYNGASSYNQKFKGKATFTVDTSSSTAYMQFNSLTSGDSAVYYCASSMDYWGQGTSVTVSSASTKGPSVFPLAPSKSTSGGTAALGCLVKDYFPEPVTVSWNSGALTSGVHTFPAVLQSSGLYSLSSVVTVPSSSLGTQTYICNVNHKPSNTKVDKKVEPKSCDKTHTCPPCPAPELLGGPSVFLFPPKPKDTLMISRTPEVCVVVDVSHEDPEVKFNWYVDGVEVHNAKTKPREEQYNSTYRVVSVLTVLHQDWLNGKEYKCKVSNKALPAPIEKTISKAKGQPREPQVYTLPPSREEMTKNQVSLTCLVKGFYPSDIAVEWESNGQPNNYKTTPPVLDSDGSFFLYSKLTVDKSRWQQGNVFSCSVMHEALHNHYTQKSLSLSPG
light: DVVMTQTPLTLSVTIGQPASISCKSSQSLLDSDGKTYLNWLLQRPGQSPKRLIYLVSKLDSGVPDRFTGSGSGTDFTLKISRVEAEDLGVYHCWQGTHFPYTFGGGTKLEIKRTVAAPSVFIFPPSDQLKSGTASVVCLLNNFYPREAKVQWKVDNALQSGNSQESVTEQDSKDSTYSLSSTLTLSKADYEKHKVYACEVTHQGLSSPVTKSFNRGEC
inhibition of cell proliferation (72 hours, FIG. 21B, Table 16): no functional activity
